# From the RNAGym collection of RNA variant scans (doi:10.1073/pnas.2313332121)
# B1: TPR t1 (parent)
# chain: GACCAAUCUGCCCUCAGAGCUCGAGAACAUCUUCGGAUGCAGAGGAGGCAGGCUUCGGUGGCGCGAUAGCGCCAACGUCCUCAACCUCCAAUGCAUCCCACCACAUGAUGAUGCCUGAAGAGCCUUGGUUUUUUG
# Variants of: B1
# Assay: polymerase ribozyme fitness, log enrichment relative to wild type (log ratio); higher = more active; in vitro selection for triplet polymerase activity
# Summary of the method: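 The heterodimeric triplet polymerase ribozyme's subunits were each mutagenized into PCR-built libraries and transcribed. Every library was selected once, in triplicate, by annealing with a biotinylated primer, the partner subunit and triplets, incubating frozen at −7 °C, gel-excising extended constructs, capturing on streptavidin beads and running RT-PCR. Input and output libraries were Illumina-sequenced, with genotypes kept only at ≥10 input reads and ≥1 read per output. Fitness, from inverse-variance-weighted replicate averages, is the base-2 logarithm of genotype enrichment over wild-type enrichment.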
row,Variant,polymerase ribozyme fitness (log ratio)
1,GACCAAUCUGCCCUCAGAGCUCGAGAACAUCUUCGGAUGCAGAGGAGGCAGGUUUCGGUGGCGCGAUAGCGCCAACGUCCUCAACCUCUAAUGCAUCCCACCAAAUGAUGAUGCUUGAAGAGCAUUGGUUUUGUG [C53U C89U C104A C115U C124A U133G],-4.17
2,GACCAAUCUGCCCUCAGAGCUCGAGAACAUCUUCGGAUGCAGAGGAGGCAGGUUUCGGUGGCGCGAUAGCGCCAACGUCCUCAACCUCCAAUGAAUCCCACCACAUGAUGAUGCCUGAAGAGCCUUGGUUUUUUG [C53U C94A],-1.44
3,GACCAAUCUGCCCUCAGAGCUCGAGAACAUCUUCGGAUGCAGAGGAGGCAGGUUUCGGUGGCGCGAUAGCGCCAACGUCCUCAACCUCCAAUGCAUCCCAACACAUGAUGAUGCCUGAAGAGCCUUGGUUUUUUG [C53U C101A],-0.961
4,GACCAAUCUGCCCUCAGAGCUCGAGAACAUCUUCGGAUGCAGAGGAGGCAGGUUUCGGUGGCGCGAUAGCGCCAACGUCCUCAACCUCCAAUGCAUCCCACCACAUGAUGAUGCCUGAAGAGACUUGGUUUUUUG [C53U C123A],1.2
5,GACCAAUCUGCCCUCAGAGCUCGAGAACAUCUUCGGAUGCAGAGGAGGCAGGUUUCGGUGGCGCGAUAGCGCCAACGUCCUCAACCUCUAAUGCAUCCCACCACAUGAUGAUGCCUGAAGAGCCUUGGUUUUUUC [C53U C89U G135C],-0.361
6,GACCAAUCUGCCCUCAGAGCUCGAGAACAUCUUCGGAUGCAGAGGAGGCAGGUUUCGCUGGCGCGAUAGCGCCAACGUCCGCAACCUAUAAUGCAUCCCACCACAUGAUGAUGCCUGAACAGCCUUGGUUUUUUG [C53U G58C U81G C88A C89U G120C],-4.46
7,GACCAAUCUGCCCUCAGAGCUCGAGAACAUCUUCGGAUGCAGAGGAGGCAGGUUUCGGUGACGCGAUAGCGCCUACGUCCUCAACCUCCAAUGCAUCCCACCACAUGAUGAUGCCUGAAGAGCCUUCGUUUUUUG [C53U G61A A74U G127C],-1.43
8,GACCAAUCUGCCCUCAGAGCUCGAGAACAUCUUCGGAUGCAGAGGAGGCAGGUUUCUGUGGCGCGAUAGCGCCAACGUCCUCAACCUCCAAUGCAUCCCAACACAUGAGGAUGCCUGAAGAGCCUUGGUUUUUUG [C53U G57U C101A U109G],-6.08
9,GACCAAUCUGCCCUCAGAGCUCGAGAACAUCUUCGGAUGCAGAGGAGGCAGGUUUCCGUGGCGCGAUAGCGCCAACGUCCUCCACCUCCAAUGCAUCCCACCACAUGAUGAUGCCUGAAGAGCCUUGGUUUUUUG [C53U G57C A83C],-0.254
10,GACCAAUCUGCCCUCAGAGCUCGAGAACAUCUUCGGAUGCAGAGGAGGCAGGUUUCGGUGGCGCGAUAGCGCCAACGUCCUCAACCUCCAAUGCAUGCCACCACAUGAUGAUGCCUGAAGAGCCUUGGUUUUUUG [C53U C97G],-4.59
11,GACCAAUCUGCCCUCAGAGCUCGAGAACAUCUUCGGAUGCAGAGGAGGCAGGUUUCGGUGGCGCGAUAGCGCCAACGUCCUCAACCUCCAAUGCAUCCCACCACAUGAUGAUGCUUCAAGAGCCUUGGUUUUUUG [C53U C115U G117C],-3.76
12,GACCAAUCUGCCCUCAGAGCUCGAGAACAUCUUCGGAUGCAGAGGAGGCAGGUUUCGGUGGCGCGAUAGCGCCAACGUCCUCAACCUCCAAUGCAUCCCACCACAUGAUGAUGUCUGAAGAGCCUUGGUUUUUUG [C53U C114U],-1.76
13,GACCAAUCUGCCCUCAGAGCUCGAGAACAUCUUCGGAUGCAGAGGAGGCAGGUUUCGGUGGCACGAUAGCGCCAACGUCCUCAACCUCCAAUGCAUCCCACCACAUGAUGAUUCCUGAAGAGCCUUGGUUUUUUG [C53U G63A G113U],-5.15
14,GACCAAUCUGCCCUCAGAGCUCGAGAACAUCUUCGGAUGCAGAGGAGGCAGGUUUCGGUGCCGCGAUAGCGCCAACGUCCUCAACCUCCAAUGCAUCCCACCACAGGAUGAUGCCUGAAGAGCGUUGGUUUUUUA [C53U G61C U106G C124G G135A],-0.0167
15,GACCAAUCUGCCCUCAGAGCUCGAGAACAUCUUCGGAUGCAGAGGAGGCAGGUUUCUGUGGCGCGAUAGCGCCAACGUCCUCAACCUCCAAUGCAUCCCACCACAUGAUGAUGCCUGAAGAGCCUUGGUUUUUUG [C53U G57U],0.599
16,GACCAAUCUGCCCUCAGAGCUCGAGAACAUCUUCGGAUGCAGAGGAGGCAGGUUUCGGUAGCGCGAUAGCGCCAACGUCCUCACCCUCCAAUGCAUCCCACCACAUGAUGAUGCCUGAAGAGCCUUGGUUUUUUG [C53U G60A A84C],-0.485
17,GACCAAUCUGCCCUCAGAGCUCGAGAACAUCUUCGGAUGCAGAGGAGGCAGGUUUCGGUGGCGCGAUAGCGCCAACGUCCUCAACCUCCAAUGCAUCCCAGCACAUGAUGAUGCCUGAAGAGCCUUGGUAUUUUG [C53U C101G U130A],-2.65
18,GACCAAUCUGCCCUCAGAGCUCGAGAACAUCUUCGGAUGCAGAGGAGGCAGGUUUCGGUGGCACGAUAGCGCCAACGUCCUCAACCUCCAAUGCAUCCCACAUCAUGAUGAUGCCUGAAGAGCCUUGGUUUUUUG [C53U G63A C102A A103U],-7.55
19,GACCAAUCUGCCCUCAGAGCUCGAGAACAUCUUCGGAUGCAGAGGAGGCAGGUUUCGGUUGCGCGAUAGCGCCAACGUCCUCAACCUCCAAUGCAUCCCAGCACAUGAUGAUGCCUGAAGAGCCUUGGUUUUUUG [C53U G60U C101G],-1.27
20,GACCAAUCUGCCCUCAGAGCUCGAGAACAUCUUCGGAUGCAGAGGAGGCAGGUUUCGGUAGCGCGAUAGCGCCAACGUCCUCCACCCCCAAUGCAUCCCACCACAUGAUGAUGCCUGAAGAGCCUUGGUUUUUUG [C53U G60A A83C U87C],-0.3
21,GACCAAUCUGCCCUCAGAGCUCGAGAACAUCUUCGGAUGCAGAGGAGGCAGGUUUCGUUGGCGCGAUAGUGCCAACGUCCUCAACCUCCAAUGCAUCCCACCACAUGAUGAUGCCUGAAGAGCCUUGGUUUUUUG [C53U G58U C70U],-0.221
